{"source": "paper doi:10.1101/836718", "key": {"[1]": {"molecular_target": "recombinant His-tagged HIV-1 integrase P26 (A128T/H171Q/K173Q/N254K) (IN^P26) (HIV-1 (NL4-3))", "assay": "SEC"}, "[2]": {"molecular_target": "recombinant His-tagged HIV-1 integrase P26 (A128T/H171Q/K173Q/N254K) (IN^P26) (HIV-1 (NL4-3))", "assay": "cross-linking"}, "[3]": {"molecular_target": "recombinant His-tagged HIV-1 integrase P20 (A128T/K173Q/N254K) (IN^P20) (HIV-1 (NL4-3))", "assay": "SEC"}, "[4]": {"molecular_target": "recombinant His-tagged HIV-1 integrase R269A/K273A (IN^RAKA) (HIV-1 (NL4-3))", "assay": "cross-linking"}, "[5]": {"molecular_target": "recombinant His-tagged HIV-1 integrase P15 (A128T/K173Q) (IN^P15) (HIV-1 (NL4-3))", "assay": "SEC"}}, "data": [{"substance": "recombinant His-tagged HIV-1 integrase P26 (A128T/H171Q/K173Q/N254K) (IN^P26) (enzyme)", "values": [{"measurement": "stoichiometry N", "setting": "[1]", "result": 2}, {"measurement": "multimer ratio, dimers", "setting": "[2]", "result": 19.6, "unit": "%"}, {"measurement": "multimer ratio, tetramers", "setting": "[2]", "result": 3.3, "unit": "%"}, {"measurement": "stoichiometry N", "setting": "[2]", "result": 4}]}, {"substance": "recombinant His-tagged HIV-1 integrase P20 (A128T/K173Q/N254K) (IN^P20) (enzyme)", "values": [{"measurement": "stoichiometry N", "setting": "[3]", "result": 2}]}, {"substance": "recombinant His-tagged HIV-1 integrase R269A/K273A (IN^RAKA) (enzyme)", "values": [{"measurement": "stoichiometry N", "setting": "[4]", "result": 4}]}, {"substance": "recombinant His-tagged HIV-1 integrase P15 (A128T/K173Q) (IN^P15) (enzyme)", "values": [{"measurement": "stoichiometry N", "setting": "[5]", "result": 2}]}]}
